From US20160356794A1 (Merck Sharp & Dohme, published 2016)
No end group written: not given here.

Tests used:
[1] = target: h-Tau 441 (human Tau isoform 2-441, Accession No. NP 005901.2) (human, UniProt P10636 2-758); assay: SPR, BIAcore CM3 sensor chip, immobilized h-Tau 441
Description: The binding affinity (Kd) of the 10H8 and 19G10 mAbs was determined by BIAcore CM3 sensor chip (Biacore, Piscataway, N.J.) using immobilized h-Tau 441 as the capture protein.

[2] = target: T1, PPTREPKKVAVVRTP (human); assay: RepliTope peptide microarray, immobilized 15-mer, fluorescent secondary antibody
T1 construct: Synthetic peptide covalently immobilized on glass through a hydrophilic linker (RepliTope microarray)
T1 peptide: PPTREPKKVAVVRTP
Source text: (§1) Epitope mapping of clones 10H8 and 19G10 was completed using JPT Peptide Technologies' RepliTope™ peptide microarrays. This technology consists in using purified synthetic peptides chemoselectively and covalently immobilized to the glass surface. An optimized hydrophilic linker moiety is inserted between the glass surface and the antigen derived peptide sequence to avoid false negatives caused by sterical hindrance. The peptides used spanned Tau mid region protein sequence of 166 amino acids between amino acid 104 and amino acid 269 (Tau 166). Peptides of 15 amino acids in length that extended downstream either 1 or 2 amino acids at a time were used in this experiment.
(§2) The assay was performed using an automated TECAN HS4X00 microarray processing station. Microarrays were washed, incubated with blocking buffer for 60 min at 30° C., and subsequently with clones […] and 19G10 diluted in blocking buffer for 120 min at 30° C. Microarrays were washed and incubated with secondary antibody diluted in blocking buffer for 45 min at 30° C. and then dried. The quantification was performed using high resolution fluorescence scanner. The resulting images were analyzed and quantified using spot-recognition software GenePix (Molecular Devices). For each spot, the mean signal intensity was extracted and expressed as arbitraty florescence units.

[3] = target: T2, TREPKKVAVVRTPPK (human, also: covalently immobilized on glass through a hydrophilic linker); assay: as above
T2 construct: Synthetic peptide covalently immobilized on glass through a hydrophilic linker (RepliTope microarray)
T2 peptide: TREPKKVAVVRTPPK
Source text: as §1, §2

[4] = target: T3, EPKKVAVVRTPPKSP (human); assay: as above
T3 construct: Synthetic peptide covalently immobilized on glass through a hydrophilic linker (RepliTope microarray)
T3 peptide: EPKKVAVVRTPPKSP
Source text: as §1, §2

[5] = target: T4, KKVAVVRTPPKSPSS (human); assay: as above
T4 construct: Synthetic peptide covalently immobilized on glass through a hydrophilic linker (RepliTope microarray)
T4 peptide: KKVAVVRTPPKSPSS
Source text: as §1, §2

[6] = target: T5, SLPTPPTREPKKVAV (human, also: covalently immobilized on glass through a hydrophilic linker); assay: as above
T5 construct: Synthetic peptide covalently immobilized on glass through a hydrophilic linker (RepliTope microarray)
T5 peptide: SLPTPPTREPKKVAV
Source text: as §1, §2

[7] = target: T6, LPTPPTREPKKVAVV (human); assay: as above
T6 construct: Synthetic peptide covalently immobilized on glass through a hydrophilic linker (RepliTope microarray)
T6 peptide: LPTPPTREPKKVAVV
Source text: as §1, §2

[8] = target: T7, PTPPTREPKKVAVVR (human); assay: as above
T7 construct: Synthetic peptide covalently immobilized on glass through a hydrophilic linker (RepliTope microarray)
T7 peptide: PTPPTREPKKVAVVR
Source text: as §1, §2

[9] = target: T8, TPPTREPKKVAVVRT (human, also: covalently immobilized on glass through a hydrophilic linker); assay: as above
T8 construct: Synthetic peptide covalently immobilized on glass through a hydrophilic linker (RepliTope microarray)
T8 peptide: TPPTREPKKVAVVRT
Source text: as §1, §2

[10] = target: T9, PPTREPKKVAVVRTP (human); assay: as above
T9 construct: Synthetic peptide covalently immobilized on glass through a hydrophilic linker (RepliTope microarray)
T9 peptide: PPTREPKKVAVVRTP
Source text: as §1, §2

[11] = target: T10, PTREPKKVAVVRTPP (human); assay: as above
T10 construct: Synthetic peptide covalently immobilized on glass through a hydrophilic linker (RepliTope microarray)
T10 peptide: PTREPKKVAVVRTPP
Source text: as §1, §2

[12] = target: T11, TREPKKVAVVRTPPK (human, also: covalently immobilized on glass through a hydrophilic linker); assay: as above
T11 construct: Synthetic peptide covalently immobilized on glass through a hydrophilic linker (RepliTope microarray)
T11 peptide: TREPKKVAVVRTPPK
Source text: as §1, §2

[13] = target: T12, REPKKVAVVRTPPKS (human); assay: as above
T12 construct: Synthetic peptide covalently immobilized on glass through a hydrophilic linker (RepliTope microarray)
T12 peptide: REPKKVAVVRTPPKS
Source text: as §1, §2

[14] = target: T13, EPKKVAVVRTPPKSP (human); assay: as above
T13 construct: Synthetic peptide covalently immobilized on glass through a hydrophilic linker (RepliTope microarray)
T13 peptide: EPKKVAVVRTPPKSP
Source text: as §1, §2

[15] = target: T14, PGSRSRTPSLPTPPT (human); assay: as above
T14 construct: Synthetic peptide covalently immobilized on glass through a hydrophilic linker (RepliTope microarray)
T14 peptide: PGSRSRTPSLPTPPT
Source text: as §1, §2

[16] = target: T15, SRSRTPSLPTPPTRE (human, also: covalently immobilized on glass through a hydrophilic linker); assay: as above
T15 construct: Synthetic peptide covalently immobilized on glass through a hydrophilic linker (RepliTope microarray)
T15 peptide: SRSRTPSLPTPPTRE
Source text: as §1, §2

[17] = target: T16, … (human); assay: as above
T16 construct: Synthetic peptide covalently immobilized on glass through a hydrophilic linker (RepliTope microarray)
Source text: as §1, §2

[18] = target: T17, … (human); assay: as above; remark: listed apart in the source
T17 construct: Synthetic peptide covalently immobilized on glass through a hydrophilic linker (RepliTope microarray)
Source text: as §1, §2

[19] = target: T18, SLPTPPTREPKKVAV (human, also: covalently immobilized on glass through a hydrophilic linker); assay: as above
T18 construct: Synthetic peptide covalently immobilized on glass through a hydrophilic linker (RepliTope microarray)
T18 peptide: SLPTPPTREPKKVAV
Source text: as §1, §2

[20] = target: T19, PTPPTREPKKVAVVR (human); assay: as above
T19 construct: Synthetic peptide covalently immobilized on glass through a hydrophilic linker (RepliTope microarray)
T19 peptide: PTPPTREPKKVAVVR
Source text: as §1, §2

h-Tau 441 (human Tau isoform 2-441, Accession No. NP 005901.2), sequence (P10636 other isoform, or with tags, fused parts or gaps limits assumed): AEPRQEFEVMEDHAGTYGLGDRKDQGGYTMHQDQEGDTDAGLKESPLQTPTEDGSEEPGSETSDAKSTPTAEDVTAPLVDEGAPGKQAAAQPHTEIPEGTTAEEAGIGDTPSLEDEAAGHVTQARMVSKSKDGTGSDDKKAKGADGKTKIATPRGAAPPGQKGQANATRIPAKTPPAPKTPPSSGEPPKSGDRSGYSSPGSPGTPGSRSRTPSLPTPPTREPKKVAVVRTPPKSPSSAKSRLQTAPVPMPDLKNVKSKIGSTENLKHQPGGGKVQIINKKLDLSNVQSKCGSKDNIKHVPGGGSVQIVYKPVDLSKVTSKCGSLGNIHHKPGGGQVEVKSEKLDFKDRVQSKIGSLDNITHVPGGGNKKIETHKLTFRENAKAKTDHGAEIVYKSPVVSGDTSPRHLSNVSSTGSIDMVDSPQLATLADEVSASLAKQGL

- Kd [1]: 17 nM
- koff [1]: 0.000306 s⁻¹
- kon [1]: 18200 M⁻¹ s⁻¹
- Fluorescent Intensity [2]: 61100 arbitrary fluorescence units
- Fluorescent Intensity [3]: 32400 arbitrary fluorescence units
- Fluorescent Intensity [4]: 2100 arbitrary fluorescence units
- Fluorescent Intensity [5]: 750 arbitrary fluorescence units
- Fluorescent Intensity [6]: 64400 arbitrary fluorescence units
- Fluorescent Intensity [7]: 59500 arbitrary fluorescence units
- Fluorescent Intensity [8]: 64200 arbitrary fluorescence units
- Fluorescent Intensity [9]: 60600 arbitrary fluorescence units
- Fluorescent Intensity [10]: 60200 arbitrary fluorescence units
- Fluorescent Intensity [11]: 64300 arbitrary fluorescence units
- Fluorescent Intensity [12]: 58800 arbitrary fluorescence units
- Fluorescent Intensity [13]: 1400 arbitrary fluorescence units
- Fluorescent Intensity [14]: 890 arbitrary fluorescence units
- Fluorescent Intensity [15]: 570 arbitrary fluorescence units
- Fluorescent Intensity [16]: 552 arbitrary fluorescence units
- Fluorescent Intensity [17]: 58000 arbitrary fluorescence units
- Fluorescent Intensity [18]: 56700 arbitrary fluorescence units
- Fluorescent Intensity [19]: 63900 arbitrary fluorescence units
- Fluorescent Intensity [20]: 53000 arbitrary fluorescence units
B1: monoclonal antibody 10H8 (antibody, mouse IgG1, V domains shown)
VH: EVQLQQSGAELVRPGASVKLSCTASGFNIKDEYMNWVKQRPERGLEWIGWIDPENGDAAYASKFQGKATMTADTSSNTAYLQLSSLTSEDTAVYFCTFFYSNYDGYFDVWGAGTTVTVSS
VL: DVLMTQTPLSLPVSLGDQASISCRSSQNIIHSNGSTYLEWYLQKPGQSPKLLIYKVSNRFSGVPDRFSGSGSGTDFTLKISRVEAEDLGIYYCFQGSHVPWTFGGGTKLEIK
notes: also called mAb 10H8; 10H8 mAb
